Source: patent US9499823B2, “Constructs expressing chimeric receptors and use thereof for the controlled activation of defence response to pathogens in plants” (priority 2009, dated 2016)
Entries after “also recorded” stand apart in the source; their conditions may differ.

System: B. cinerea
Test: Lesion development in Arabidopsis plants inoculated with B. cinerea
Type: in vivo
Conditions: transgenic Arabidopsis vs Col-0 or Col-0 efr, 48 h post-inoculation
Procedure: (A) Growth of A. tumefaciens in N. tabacum tissues transiently expressing receptor proteins. Tobacco leaves were infiltrated with Agrobacterium carrying the indicated receptor constructs and the number of Agrobacterium colony-forming units (c.f.u.) in the tissues was analyzed immediately after infiltration (white bars) and after 24 h (gray bars). EFR and eJMC were used as positive and negative controls, respectively. For each receptor, three samples were analyzed in five independent experiments. Asterisks indicate statistically significant differences against control (Col-0 for WAK1 plants and Col-0 efr for WEG and EWAK plants). (B) Lesion development in Arabidopsis wild type (Col-0) and mutant Col-0 efr plants and in transgenic plants expressing WAK1, WEG and EWAK plants inoculated with B. cinerea at 48 h post-inoculation. Values are means±s.e.m. of at least 16 lesions. The same experiment was performed in a second independent transgenic line expressing WAK1 with similar results. Asterisks indicate statistically significant differences against control (Col-0 for WAK1 plants and Col-0 efr for WEG and EWAK plants).

B1: WEG: chimeric receptor: WAK1 ectodomain fused to the TM-iJM-kinase portion of EFR, GFP-fused (protein)
chain: QHQPGENCQNKCGNITIEYPFGISSGCYYPGNESFSITCKEDRPHVLSDIEVANFNHSGQLQVLLNRSSTCYDEQGKKTEEDSSFTLENLSLSANNKLTAVGCNALSLLDTFGMQNYSTACLSLCDSPPEADGECNGRGCCRVDVSAPLDSYTFETTSGRIKHMTSFHDFSPCTYAFLVEDDKFNFSSTEDLLNLRNVMRFPVLLDWSVGNQTCEQVGSTSICGGNSTCLDSTPRNGYICRCNEGFDGNPYLSAGCQDVNECTTSSTIHRHNCSDPKTCRNKVGGFYCKCQSGYRLDTTTMSCKRKEVVSGICIGIASLLLIIIVASLCWFMKRKKKNNASDGNPSDSTTLGMFHEKVSYEELHSATSRFSSTNLIGSGNFGNVFKGLLGPENKLVAVKVLNLLKHGATKSFMAECETFKGIRHRNLVKLITVCSSLDSEGNDFRALVYEFMPKGSLDMWLQLEDLERVNDHSRSLTPAEKLNIAIDVASALEYLHVHCHDPVAHCDIKPSNILLDDDLTAHVSDFGLAQLLYKYDRESFLNQFSSAGVRGTIGYAAPEYGMGGQPSIQGDVYSFGILLLEMFSGKKPTDESFAGDYNLHSYTKSILSGCTSSGGSNAIDEGLRLVLQVGIKCSEEYPRDRMRTDEAVRELISIRSKFFSSKTTITESPRDAPQSSPQEWMLNTDMHTM
modifications: left off: large carriers
resistance to B. cinerea infection: increased resistance; also recorded: confers resistance
